Values quoted from earlier work, collected in paper PMC2803043.

Target: Frizzled (Drosophila melanogaster) (UniProt P18537)
Chain of UniProt P18537 (P18537 19-581): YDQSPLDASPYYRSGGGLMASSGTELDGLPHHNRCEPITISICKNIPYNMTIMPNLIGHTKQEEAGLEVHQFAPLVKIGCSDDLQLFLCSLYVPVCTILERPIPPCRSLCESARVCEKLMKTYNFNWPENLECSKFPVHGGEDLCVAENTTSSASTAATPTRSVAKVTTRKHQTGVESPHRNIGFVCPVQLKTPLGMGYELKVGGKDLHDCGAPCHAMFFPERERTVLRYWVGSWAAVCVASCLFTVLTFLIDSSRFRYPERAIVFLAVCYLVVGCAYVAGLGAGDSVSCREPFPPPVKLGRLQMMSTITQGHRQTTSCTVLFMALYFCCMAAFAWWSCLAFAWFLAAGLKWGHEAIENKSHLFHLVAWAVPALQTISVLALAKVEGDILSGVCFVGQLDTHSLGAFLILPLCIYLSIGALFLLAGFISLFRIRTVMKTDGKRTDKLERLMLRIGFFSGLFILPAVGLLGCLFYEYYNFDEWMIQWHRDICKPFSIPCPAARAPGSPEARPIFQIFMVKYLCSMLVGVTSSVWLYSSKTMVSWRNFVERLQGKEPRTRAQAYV

Q: Which Kd does the source give for Dishevelled PDZ (from UniProt P51140) here?
A: 10 µM
